This is an account of results in the supplement of paper PMC12042874.

± gives the uncertainty stated by the source.

A short description of this data set: amyloid nucleation score (Sup35N fusion, yeast selection) (log enrichment); library NNK2; higher = more nucleation; inactive = no reads after selection. In a few lines: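 On medium lacking adenine and uracil, psi-negative yeast expressing peptides of 20 random codons fused to Sup35N were grown 7 days at 30°C after a 24-hour induction with 100 μM copper sulfate. Illumina sequencing of input and output plasmid inserts gave the reads, and sequences under 100 input reads were excluded. The nucleation score is the DiMSum log enrichment of output over input reads, centred on the mode score of non-aggregating sequences.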
EVAEQH came in with an amyloid nucleation score of 0.426 ± 0.16.
To EVELALGGSELGGVVSWLM belongs 1.77 ± 0.27; to EVHLEVLTNCKKV, 5.05 ± 0.051; to EVIANWLENGYYVSKTVFVD, -0.026 ± 0.29.
To EVLARR belongs 0.611 ± 0.46.
Regarding EVMCDAKLAGCVTSRPWLSR, the amyloid nucleation score stood at 0.925 ± 0.34.
To EVMEFSNDFSRIFFAFKGFV belongs -0.665 ± 0.78; to EVNRAPNVSIVYRRNSGTAD, -0.154 ± 0.4.
For EVRSALYAYEGYLRVFRSFR the value was 0.819 ± 0.46; for EVSQGLDSILYLWYDEWDSA, -0.608 ± 0.31; for EVVLSAILQHYMSFVSGDDL, -0.201 ± 0.41.
With EWCQFIR, the amyloid nucleation score is -0.199 ± 0.19.
Substance EWCQKGSAEIRASRCQ showed an amyloid nucleation score of 0.58 ± 0.18.
EWVYFLCSFHPSIDFLNISD: the amyloid nucleation score was 5.62 ± 0.076.
Regarding EYMAITSFQKLFPHWFLSTE, the amyloid nucleation score result is “inactive”.
EYRLFCCWE yielded an amyloid nucleation score of 6.04 ± 0.072.
EYSMHTWCRYKEDFSRGASG: the amyloid nucleation score was found to be 2.98 ± 0.096.
EYSPCPSCT gave an amyloid nucleation score of 3.966 ± 0.037.
To EYSTFPRRSDRSEIHFSINL belongs 3.47 ± 0.12; to EYVVSLHVFRLHIKLKIFRV, -0.09 ± 0.65; to EYYINFVNNTFCVDSLRSLD, 5.068 ± 0.035.
Consider FAEFKVQIYLSWLYPEIPVN, for which the amyloid nucleation score was -0.455 ± 1.1.
The substance FAIHLKLMYVGTDFSNVRDI returned an amyloid nucleation score of -1.15 ± 0.76.
In turn, FAKIRGLITFVLQMWVTVYV registered an amyloid nucleation score of -0.278 ± 0.45.
To FANGRFMNPSHGLYSLPLKR belongs 0.09 ± 0.51; to FAPRSKPLRSLFEGLLF, 0.495 ± 0.57.
FASFVSIGRVVLLYSPSCYQ returned an amyloid nucleation score of 5.71 ± 0.059.
FASSEVYTGVSYIIHVSVYS displayed an amyloid nucleation score of -0.714 ± 1.
Substance FCDVQDFAVLSGVELLNLSY returned an amyloid nucleation score of -0.751 ± 0.39.
Take FCELLIVAVLLQGDSLKPQS: the amyloid nucleation score is 0.485 ± 0.36.
As for FCFFSLVRLYKGYRSSINLA, the amyloid nucleation score entry is “inactive”.
For FCHCFRGYARDHHRMTQLGN, the amyloid nucleation score is -0.674 ± 0.76.
The substance FCKVGFALLGVNQDVLYEMS yielded an amyloid nucleation score of -0.714 ± 1.
Substance FCMNTQH returned an amyloid nucleation score of 5.288 ± 0.042.
FCMVGLCMCGRQEMCGSTDS had an amyloid nucleation score of 5.99 ± 0.062.
FCRSYCVLVYLWSPYVTGSK yielded an amyloid nucleation score of 0.349 ± 0.5.
Turning to FCSFSMFRLAS, the amyloid nucleation score is 0.606 ± 0.8.
To FCYCLIKGCMLEGLSNYSCD belongs -0.613 ± 1.1; to FCYIDGLGYSRFNMHAEPSG, -0.326 ± 0.48; to FDALRIFVPVPYRRWSSR, 1.52 ± 0.28.
FDLNAREHYRASRGDTGTGH displayed an amyloid nucleation score of 1.16 ± 0.68.
As for FDLNVVDIFTLCMRKRYTME, the amyloid nucleation score result was “inactive”.
In the case of FDPLTFFGHRYCMQDMQLSD, the amyloid nucleation score was -0.027 ± 0.32.
FDSEQLIRYD displayed an amyloid nucleation score of -0.909 ± 1.1.
As to FDTASTVDSVRIRKTKSSQ, the amyloid nucleation score result was “inactive”.
The substance FDVSFILSL came in with an amyloid nucleation score of -1.34 ± 1.
The substance FDWMI yielded an amyloid nucleation score of 0.926 ± 0.28.
Turning to FECKCKVYTPAWGCHQYLIL, the amyloid nucleation score result was “inactive”.
Consider FECKVVILKCRLGYIFGANN, for which the amyloid nucleation score came out at 1.26 ± 0.16.
Consider FEFYLIARIFCPKGLLCESS, for which the amyloid nucleation score entry is “inactive”.
For the substance FEGLWQTFTMSLQGNLKYIF, the amyloid nucleation score was -0.4 ± 0.74.
FEGQA: the amyloid nucleation score was -1.8 ± 0.54.
FEWSTGCG: the amyloid nucleation score result was “inactive”.
For the substance FEYIVVESVCRSWWNLVS, the amyloid nucleation score was -0.051 ± 0.55.
FEYYIDPRK displayed an amyloid nucleation score of -1.27 ± 0.61.
As to FFFVWESNPSIWDGTFTVEV, the amyloid nucleation score came out at 0.21 ± 0.46.
To FFISLDRVMLTGLKLTCPLG belongs -0.266 ± 1.1.
Substance FFIWKVLDWHLNSRSYRWFG yielded an amyloid nucleation score of -0.325 ± 0.76.
On to FFKGLSKSIQVGL, for which the amyloid nucleation score was -1.06 ± 0.56.
With FFLLVCVDGKTRRVD, the amyloid nucleation score turned out to be 0.8 ± 0.15.
Take FFLNVFDIMRILLYN: the amyloid nucleation score entry was “inactive”.
In turn, FFLSNWAAF yielded an amyloid nucleation score of 0.234 ± 0.55.
Consider FFLSRFLV, for which the amyloid nucleation score is -0.27 ± 0.79.
The substance FFSDVSLVQYHLTLRFLMAY returned an amyloid nucleation score of -1.69 ± 0.62.
To FFSGGIILHYSYPTWEWYRS belongs 2.92 ± 0.098.
FFSLSQQYSRSVIVYAKLHL came in with an amyloid nucleation score of -0.98 ± 0.54.
For FFTHTWLRRLKTLCVSFVPK the value was -0.516 ± 0.45; for FFTQGSCDTILRGLAFFTPR, -0.26 ± 1.
Consider FFVDMSYPGSWNICYLTRFC, for which the amyloid nucleation score entry was “inactive”.
FFVESRSCSGYKMMKRCLDV had an amyloid nucleation score of 1.54 ± 0.15.
Take FFVFGSWPHSSQGEGSLHKG: the amyloid nucleation score was determined as 0.387 ± 0.8.
For FFVKTLFEGSLDVSSNSTFF the value was -0.304 ± 1.1; for FFYALGYRISDAMEIRRVGS, 2.35 ± 0.059; for FFYWL, “inactive”.
On to FFYWLAMIW, for which the amyloid nucleation score is -0.582 ± 0.63.
FGFLPSVIWEASDIGSDCLE yielded an amyloid nucleation score of 0.072 ± 1.1.
FGFWSPATVNNVRALIKDCV had an amyloid nucleation score of -0.409 ± 0.53.
As for FGIHHCLVCRLNLDFISGVD, the amyloid nucleation score was -0.877 ± 0.62.
For FGMRTGWREGGESCSTHERG the value was 1.14 ± 0.38.
Consider FGMTRRETWNLSGCESITCT, for which the amyloid nucleation score came out at 0.593 ± 0.45.
Regarding FGNGDKSGMIGINVNLLCRM, the amyloid nucleation score stood at 5.73 ± 0.034.
FGPSRYTRSVFSVEQTSL showed an amyloid nucleation score of -0.114 ± 1.
Regarding FGYLVIKFVTYVRRRTNTYN, the amyloid nucleation score was -0.113 ± 0.56.
Take FHAYTGCVWVTCQYGWRRDT: the amyloid nucleation score is 1.9 ± 0.15.
FHCNPIS registered an amyloid nucleation score of -0.277 ± 1.1.
FHGAYIGASSVNDPSVSD: the amyloid nucleation score was found to be 5.322 ± 0.04.
For FHHSHANSNVSRGIDIFGAV, the amyloid nucleation score is -0.454 ± 0.32.
Regarding FHKKAMIRSFCPKEIDLGSM, the amyloid nucleation score entry is “inactive”.
For FHLIALNCRWADDLFIGSGV the value was 0.374 ± 0.62.
For FHMVIGWYICLICNGFYTFF the value was “inactive”; for FHRPWTFLLLNLPTRGFFLR, “inactive”; for FIDDSDFKYSYSAQFVCLID, 4.91 ± 0.1.
For FIELMCWRSH the value was -0.315 ± 0.45.
Regarding FIERILAVSCFAYFVKPSTV, the amyloid nucleation score worked out at 5.44 ± 0.042.
FIFIMGIFERLH returned an amyloid nucleation score of -1.54 ± 1.1.
Turning to FIIIVLNNSVFRMKCALASI, the amyloid nucleation score is -0.202 ± 1.1.
The substance FISMLAISDIRHALDWHTSV came in with an amyloid nucleation score of 0.979 ± 0.17.
FISSADLVTNMPRI had an amyloid nucleation score of -0.8 ± 0.31.
FISTGRRQTFQTRTRSNLWV came in with an amyloid nucleation score of 0.195 ± 0.37.
For FIWSYVLSRGSV the value was -1.03 ± 0.31.
As for FKFLADVVPWFSSRWSHLMM, the amyloid nucleation score is -0.867 ± 0.37.
Turning to FKGSDHCSKCRQVGEFVFST, the amyloid nucleation score was -0.707 ± 1.1.
FKGSWHAFECEAYEYAWV gave an amyloid nucleation score of -0.018 ± 1.1.
In turn, FKKAMHKPKSWAFSEKGRTN gave an amyloid nucleation score of -1.27 ± 0.61.
With FKRRCVDYNFSVVILLH, the amyloid nucleation score is -2.03 ± 0.76.
For the substance FKSLVVSLCIPSDMNNLKCS, the amyloid nucleation score is -0.474 ± 0.79.
For FKWALFG the value was “inactive”.
To FLAILWLFMLGKVSGCVDKW belongs -0.155 ± 0.49.
FLCYKISSFVSICKQQEAHA: the amyloid nucleation score is -0.064 ± 1.1.
Take FLFNVSGLYIGWSLVPTNLD: the amyloid nucleation score was -0.33 ± 0.76.
FLFSIF: the amyloid nucleation score entry was “inactive”.
With FLGWPGIRQCLLFVANNRGR, the amyloid nucleation score was -0.448 ± 0.76.
For FLIFINMGIRRIRHV the value was -1.37 ± 0.75; for FLIFVFLLYGPEMSDYCWTF, 0.14 ± 1.
Consider FLINFAMIISIFRLSYHRPV, for which the amyloid nucleation score is -0.599 ± 0.55.
FLKCNLTVDLIVMMKNIFSY gave an amyloid nucleation score of 1.02 ± 0.39.
As to FLLCIRLRVNNNVRNN, the amyloid nucleation score is -0.763 ± 1.1.
For FLLSV the value was “inactive”.
Consider FLLWIHF, for which the amyloid nucleation score came to 1.04 ± 0.44.
To FLMEVSLTLSFLERSNVLKG belongs 3.8 ± 0.067; to FLNDI, “inactive”.
The substance FLRILFFGLGVMLQIRFFVH gave an amyloid nucleation score of -0.569 ± 0.37.
In the case of FLSCQTYRKNQADNADASSI, the amyloid nucleation score is -0.076 ± 0.56.
FLSLLR yielded an amyloid nucleation score of -1.05 ± 0.42.
To FLTLATSTCGPACVW belongs 6.99 ± 0.07; to FLWVLIQANYLLTEMELSSG, -0.447 ± 1.1; to FLYLALCKI, 2.49 ± 0.14.
As to FLYPRYLVVMKHVLAGRCVA, the amyloid nucleation score result is “inactive”.
In turn, FMEGTRHCGKYFSC registered an amyloid nucleation score of 0.938 ± 0.26.
Substance FMFRQCSQFMMGYYLLNG showed an amyloid nucleation score of 0.313 ± 0.46.
The substance FMGSSIGLSSCPLEDTYVLP registered an amyloid nucleation score of -0.403 ± 1.
As to FMKSNWIGTT, the amyloid nucleation score is -0.909 ± 0.39.
Consider FMLNYERL, for which the amyloid nucleation score is -1.08 ± 0.42.
For FMSICR the value was 1.47 ± 0.4.
For the substance FMWVNS, the amyloid nucleation score result is “inactive”.
Substance FNCHCSLSLVNHLASFTLSF came in with an amyloid nucleation score of 1.8 ± 0.16.
Take FNCPRSAMIVNQRHRILSGV: the amyloid nucleation score is -0.057 ± 0.43.
Substance FNGSYASILKTSNRDTFDAL had an amyloid nucleation score of 0.61 ± 0.15.
Turning to FNIERCLLISGMLCSPAVEL, the amyloid nucleation score is -0.602 ± 1.1.
